This passage reports Kd and kd results from patent US20230293571A1, “POLYNUCLEOTIDE FOR CANCER TREATMENT, ENCODING 5'-NUCLEOTIDASE MODIFIED PROTEIN” (priority 2020, published 2023).

The target in the assay is recombinant CD47 protein (Homo sapiens, UniProt Q08722). Kind of assay: SPR on CM5 chip conjugated with CD47. Type of assay: binding. As to conditions: CD47 250 RU. The method, then:
Specifically, the recombinant CD47 protein was conjugated to the surface of the CM5 chip by a target SPR reaction of 250 RU through an EDC-NHS reaction to be used, and for HBS-P, the sensogram obtained through a process of association for 3 minutes and dissociation for 10 minutes at a flow rate of 30 μL/minutes was analyzed with the BiaEvaluation software using a 1:1 binding model and global fitting.

recombinant CD47 protein, sequence (Q08722 19-323): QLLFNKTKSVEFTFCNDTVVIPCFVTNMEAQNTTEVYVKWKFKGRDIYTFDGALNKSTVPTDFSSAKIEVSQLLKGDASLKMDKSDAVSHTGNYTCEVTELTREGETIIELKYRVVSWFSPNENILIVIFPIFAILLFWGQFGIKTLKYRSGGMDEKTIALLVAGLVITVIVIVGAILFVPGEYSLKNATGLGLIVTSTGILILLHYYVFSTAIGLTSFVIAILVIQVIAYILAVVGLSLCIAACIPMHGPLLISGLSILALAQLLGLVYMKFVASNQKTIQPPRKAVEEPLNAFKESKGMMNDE

As to “Sirpα: pure Sirpα (SEQ ID NO: 25), water-soluble domain of the original CD47 ligand”, the Kd was 290 nM.

B1: SV4-DSPE (conjugate)
chain: MEEELQIIQPDLSVSVAAGESAILHCTITSLFPVGPIQWFRGAGPARVLIYNQRQGPFPRVTTVSETTKRENMDFSISISNITPADAGTYYCIKFRKGSPDTEFLSGAGTELSVRAKPS
In the case of B1, the kd is 0.000256 s⁻¹.
